Results published in article doi:10.1101/2023.09.10.557050 (bioRxiv, 2023).
Read-outs that look alike come from different tables or passages of the source. Values belong to the binder of their own block, whether it stands above or below them.

Tests used:
Assay in all cases: cryo-EM structure
cryo-EM structure [1] = molecular target: the molecule itself
cryo-EM structure [2] = molecular target: the molecule itself; remark: listed apart in the source
[3] = molecular target: T1, EcNhaA WT-like triple mutant (A109T, Q277G, L296M) (E. coli), P13738; conditions: remark: other sources report otherwise
T1 chain: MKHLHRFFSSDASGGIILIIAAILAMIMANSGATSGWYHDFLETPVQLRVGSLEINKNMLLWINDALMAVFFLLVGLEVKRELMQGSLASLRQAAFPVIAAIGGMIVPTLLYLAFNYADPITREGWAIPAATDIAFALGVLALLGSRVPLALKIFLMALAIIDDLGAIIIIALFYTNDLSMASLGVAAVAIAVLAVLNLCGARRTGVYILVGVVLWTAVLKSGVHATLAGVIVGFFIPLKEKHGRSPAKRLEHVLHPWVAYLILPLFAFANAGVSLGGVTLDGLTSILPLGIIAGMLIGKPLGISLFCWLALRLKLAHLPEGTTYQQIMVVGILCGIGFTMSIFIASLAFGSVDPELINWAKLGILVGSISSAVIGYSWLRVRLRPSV

B1: horse NHE9* (residues 8 to 575), tag removed (domain or fragment, UniProt F7B113 8-575, looked up)
chain: MSEKDEYQFQHQGAVELLVFNFLLILTILTIWLFKNHRFRFLHETGGAMVYGLIMGLILRYATAPTDIESGTVYDCGKLAFSPSTLLINITDQVYEYKYKREISQHNINPHLGNAILEKMTFDPEIFFNVLLPPIIFHAGYSLKKRHFFQNLGSILTYAFLGTAISCIVIGLIMYGFVKAMVYAGQLKNGDFHFTDCLFFGSLMSATDPVTVLAIFHELHVDPDLYTLLFGESVLNDAVAIVLTYSISIYSPKENPNAFDAAAFFQSVGNFLGIFAGSFAMGSAYAVVTALLTKFTKLCEFPMLETGLFFLLSWSAFLSAEAAGLTGIVAVLFCGVTQAHYTYNNLSLDSKMRTKQLFEFMNFLAENVIFCYMGLALFTFQNHIFNALFILGAFLAIFVARACNIYPLSFLLNLGRKHKIPWNFQHMMMFSGLRGAIAFALAIRDTESQPKQMMFSTTLLLVFFTVWVFGGGTTPMLTWLQIRVGVDLDEDLKERPSSHQEANNLEKSTTKTESAWLFRMWYGFDHKYLKPILTHSGPPLTTTLPEWCGPISRLLTSPQAYGEQLKED
stoichiometry N (cryo-EM structure [1]): 2

B2: horse NHE9*CC (L139C-I444C double mutant), tag removed (domain or fragment, UniProt F7B113 8-575, looked up)
chain: MSEKDEYQFQHQGAVELLVFNFLLILTILTIWLFKNHRFRFLHETGGAMVYGLIMGLILRYATAPTDIESGTVYDCGKLAFSPSTLLINITDQVYEYKYKREISQHNINPHLGNAILEKMTFDPEIFFNVLCPPIIFHAGYSLKKRHFFQNLGSILTYAFLGTAISCIVIGLIMYGFVKAMVYAGQLKNGDFHFTDCLFFGSLMSATDPVTVLAIFHELHVDPDLYTLLFGESVLNDAVAIVLTYSISIYSPKENPNAFDAAAFFQSVGNFLGIFAGSFAMGSAYAVVTALLTKFTKLCEFPMLETGLFFLLSWSAFLSAEAAGLTGIVAVLFCGVTQAHYTYNNLSLDSKMRTKQLFEFMNFLAENVIFCYMGLALFTFQNHIFNALFILGAFLAIFVARACNIYPLSFLLNLGRKHKIPWNFQHMMMFSGLRGACAFALAIRDTESQPKQMMFSTTLLLVFFTVWVFGGGTTPMLTWLQIRVGVDLDEDLKERPSSHQEANNLEKSTTKTESAWLFRMWYGFDHKYLKPILTHSGPPLTTTLPEWCGPISRLLTSPQAYGEQLKED
stoichiometry N (cryo-EM structure [2]): 2

stoichiometry N [3]: 2
B3: EcNhaA WT-like triple mutant (A109T, Q277G, L296M), P13738 1-388 (natural protein)
chain: MKHLHRFFSSDASGGIILIIAAILAMIMANSGATSGWYHDFLETPVQLRVGSLEINKNMLLWINDALMAVFFLLVGLEVKRELMQGSLASLRQAAFPVIAAIGGMIVPTLLYLAFNYADPITREGWAIPAATDIAFALGVLALLGSRVPLALKIFLMALAIIDDLGAIIIIALFYTNDLSMASLGVAAVAIAVLAVLNLCGARRTGVYILVGVVLWTAVLKSGVHATLAGVIVGFFIPLKEKHGRSPAKRLEHVLHPWVAYLILPLFAFANAGVSLGGVTLDGLTSILPLGIIAGMLIGKPLGISLFCWLALRLKLAHLPEGTTYQQIMVVGILCGIGFTMSIFIASLAFGSVDPELINWAKLGILVGSISSAVIGYSWLRVRLRPSV
